Legend:
Details in all cases: both partners purified
[1] = target: T1, DEF1, fragment of DENV E protein containing 1-184 aa (Dengue virus 3, strain Sri …, UniProt Q6YMS4); experiment: far-Western, overlay or dot blot; dot blot: recombinant proteins (1 µL at 1.5 mg/mL) adsorbed onto nitrocellulose; 10H10 mAb 2 μg/mL in PBS, 0.1% Tween-20, 1% BSA for 10 min; detected with goat anti-mouse IgG conjugated with alkaline phosphatase
T1 construct: envelope protein E of dengue virus 3 strain Sri Lanka/1266/2000 (genome AY099336.1), residues 1-184; numbers count on: the E protein (cut product of the polyprotein); Cloned into pET32 (BamHI/XhoI); the vector may add further linker and tag residues; source: E. coli BL21(DE3), purified (lysis buffer with 8 M urea, Ni-IMAC Sepharose)

[2] = target: T2, ZEF1, fragment of ZIKV E protein containing 1-187 aa (Zika virus, strain MR-766 (KX377335.1), UniProt A0A192GPS6); experiment: as above
T2 construct: envelope protein E of Zika virus strain MR-766 (genome KX377335.1), residues 1-187; numbers count on: the E protein (cut product of the polyprotein); Cloned into pET32 (NcoI/XhoI); the vector may add further linker and tag residues; The UniProt entry recalled is of strain Mr 766 from another GenBank record and may differ in a few residues from KX377335.1; source: E. coli BL21(DE3), purified …

[3] = target: T3, WEF1, fragment of WNV E protein containing 1-186 aa (West Nile virus, strain 956 …, UniProt P06935); experiment: as above
T3 construct: envelope protein E of West Nile virus strain 956 (genome NC_001563.2), residues 1-186; numbers count on: the E protein (cut product of the polyprotein); Cloned into pET32 (BamHI/XhoI); the vector may add further linker and tag residues between thioredoxin and the insert; source: E. coli BL21(DE3), purified (lysis buffer with 8 M urea, Ni-IMAC Sepharose)

[4] = target: T4, TEF1, fragment of TBEV E protein containing 1-187 aa (Tick-borne encephalitis virus, strain …, UniProt Q01299); experiment: far-Western, overlay or dot blot
T4 construct: source: E. coli BL21(DE3), purified (lysis buffer with 8 M urea, Ni-IMAC Sepharose)

Measured: binding result

T3 sequence (P06935 whole entry, looked up, the tested form may be a part): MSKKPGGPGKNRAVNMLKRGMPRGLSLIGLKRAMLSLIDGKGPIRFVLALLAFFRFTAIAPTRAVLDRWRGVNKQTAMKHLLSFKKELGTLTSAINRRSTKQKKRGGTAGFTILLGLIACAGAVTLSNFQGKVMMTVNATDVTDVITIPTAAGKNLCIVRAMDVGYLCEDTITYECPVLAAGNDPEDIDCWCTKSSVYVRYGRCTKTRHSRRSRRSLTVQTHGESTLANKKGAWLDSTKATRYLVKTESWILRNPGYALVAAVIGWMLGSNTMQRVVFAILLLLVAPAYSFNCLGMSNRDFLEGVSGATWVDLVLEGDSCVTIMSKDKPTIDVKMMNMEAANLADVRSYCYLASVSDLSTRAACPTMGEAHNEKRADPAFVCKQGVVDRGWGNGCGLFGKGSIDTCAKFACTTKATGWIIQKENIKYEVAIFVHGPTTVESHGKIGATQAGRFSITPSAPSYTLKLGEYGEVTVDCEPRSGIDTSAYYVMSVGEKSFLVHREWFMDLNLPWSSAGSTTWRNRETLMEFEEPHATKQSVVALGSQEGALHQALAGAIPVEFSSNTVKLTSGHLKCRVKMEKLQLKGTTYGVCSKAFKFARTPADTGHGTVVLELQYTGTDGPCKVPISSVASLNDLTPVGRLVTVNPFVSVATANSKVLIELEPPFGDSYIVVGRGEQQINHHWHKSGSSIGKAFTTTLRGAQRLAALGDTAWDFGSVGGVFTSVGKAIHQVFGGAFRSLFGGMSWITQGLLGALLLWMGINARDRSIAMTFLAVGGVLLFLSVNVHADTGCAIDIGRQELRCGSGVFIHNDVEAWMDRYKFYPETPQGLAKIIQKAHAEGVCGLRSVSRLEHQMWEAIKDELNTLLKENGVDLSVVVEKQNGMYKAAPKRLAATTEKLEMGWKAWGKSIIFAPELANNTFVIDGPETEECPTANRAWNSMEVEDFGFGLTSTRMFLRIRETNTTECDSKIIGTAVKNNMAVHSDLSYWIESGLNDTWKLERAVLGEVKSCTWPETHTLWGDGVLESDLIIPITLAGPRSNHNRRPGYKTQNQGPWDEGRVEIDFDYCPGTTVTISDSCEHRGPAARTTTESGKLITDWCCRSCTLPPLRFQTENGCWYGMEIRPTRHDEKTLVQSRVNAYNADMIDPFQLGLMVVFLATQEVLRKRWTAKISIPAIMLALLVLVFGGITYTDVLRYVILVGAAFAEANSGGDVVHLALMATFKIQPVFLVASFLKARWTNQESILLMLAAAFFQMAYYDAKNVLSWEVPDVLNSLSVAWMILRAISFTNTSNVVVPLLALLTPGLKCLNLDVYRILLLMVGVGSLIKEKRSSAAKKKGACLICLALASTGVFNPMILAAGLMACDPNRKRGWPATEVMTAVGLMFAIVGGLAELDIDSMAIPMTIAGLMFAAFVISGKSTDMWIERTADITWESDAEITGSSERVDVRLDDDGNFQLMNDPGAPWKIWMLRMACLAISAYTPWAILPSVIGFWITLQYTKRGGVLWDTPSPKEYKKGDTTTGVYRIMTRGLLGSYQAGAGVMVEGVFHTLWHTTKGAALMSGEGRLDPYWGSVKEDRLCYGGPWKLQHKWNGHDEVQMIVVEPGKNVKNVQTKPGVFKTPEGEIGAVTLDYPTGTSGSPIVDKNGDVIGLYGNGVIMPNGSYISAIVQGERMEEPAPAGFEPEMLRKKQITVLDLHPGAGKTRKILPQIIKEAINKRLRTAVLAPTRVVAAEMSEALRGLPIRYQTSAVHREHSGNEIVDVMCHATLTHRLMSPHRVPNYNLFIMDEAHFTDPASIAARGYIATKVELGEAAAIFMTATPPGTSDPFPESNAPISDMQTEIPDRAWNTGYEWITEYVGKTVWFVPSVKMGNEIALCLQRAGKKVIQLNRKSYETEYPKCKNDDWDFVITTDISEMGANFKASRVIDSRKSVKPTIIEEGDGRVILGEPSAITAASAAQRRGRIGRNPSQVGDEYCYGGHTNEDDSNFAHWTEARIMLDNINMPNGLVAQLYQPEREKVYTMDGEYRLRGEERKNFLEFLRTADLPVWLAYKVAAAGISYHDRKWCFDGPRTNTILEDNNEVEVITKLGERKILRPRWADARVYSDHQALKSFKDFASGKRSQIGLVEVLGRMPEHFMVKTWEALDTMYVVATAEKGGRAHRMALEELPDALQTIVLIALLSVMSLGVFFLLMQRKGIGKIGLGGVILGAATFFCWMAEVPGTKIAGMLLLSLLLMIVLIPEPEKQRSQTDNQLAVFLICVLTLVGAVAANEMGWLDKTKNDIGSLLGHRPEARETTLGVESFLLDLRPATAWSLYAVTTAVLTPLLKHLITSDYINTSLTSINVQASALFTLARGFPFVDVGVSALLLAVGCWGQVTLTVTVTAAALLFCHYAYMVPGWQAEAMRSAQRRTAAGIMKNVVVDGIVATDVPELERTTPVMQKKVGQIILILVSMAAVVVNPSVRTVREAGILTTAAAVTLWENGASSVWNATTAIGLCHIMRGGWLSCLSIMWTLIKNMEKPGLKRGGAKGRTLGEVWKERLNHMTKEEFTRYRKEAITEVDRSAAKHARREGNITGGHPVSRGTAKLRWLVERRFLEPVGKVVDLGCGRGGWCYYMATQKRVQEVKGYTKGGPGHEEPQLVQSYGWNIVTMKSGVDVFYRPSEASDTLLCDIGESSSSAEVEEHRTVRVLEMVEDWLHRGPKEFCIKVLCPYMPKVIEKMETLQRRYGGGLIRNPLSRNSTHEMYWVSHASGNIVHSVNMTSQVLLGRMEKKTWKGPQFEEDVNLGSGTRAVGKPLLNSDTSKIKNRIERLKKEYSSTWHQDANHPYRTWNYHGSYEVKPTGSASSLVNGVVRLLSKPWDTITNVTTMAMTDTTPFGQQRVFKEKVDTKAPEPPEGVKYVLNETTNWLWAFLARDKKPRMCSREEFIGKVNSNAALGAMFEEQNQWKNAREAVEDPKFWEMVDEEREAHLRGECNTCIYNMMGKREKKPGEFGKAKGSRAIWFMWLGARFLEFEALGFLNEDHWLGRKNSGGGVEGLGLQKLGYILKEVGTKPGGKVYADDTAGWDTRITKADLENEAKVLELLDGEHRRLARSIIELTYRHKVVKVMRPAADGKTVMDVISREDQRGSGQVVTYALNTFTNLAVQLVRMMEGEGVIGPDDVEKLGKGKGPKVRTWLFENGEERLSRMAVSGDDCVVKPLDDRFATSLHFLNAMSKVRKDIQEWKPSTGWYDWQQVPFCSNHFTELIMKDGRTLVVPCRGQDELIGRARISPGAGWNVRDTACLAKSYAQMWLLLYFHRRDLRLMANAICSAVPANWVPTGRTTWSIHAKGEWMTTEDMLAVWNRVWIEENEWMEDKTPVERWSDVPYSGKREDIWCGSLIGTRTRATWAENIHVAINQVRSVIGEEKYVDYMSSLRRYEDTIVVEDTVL

B1: 10H10 monoclonal antibody (antibody, V domains shown)
VH: VKLEESGGGLVKPGGSLKLSCAASGFSFSDYYMYWVRQTPEKRLEWVATISDGGSHTSYRDSVKGRFTISRDNGKNNLYLQMSSLKSEDTAMYYCVRGAYWGQGTLVTVSS
VL: not shown
notes: also called 10H10 mAb; 10H10 antibody
binds: [1] | [2] | [3] | [4]

— PMC9316223, “Can Modern Molecular Modeling Methods Help Find the Area of Potential Vulnerability of Flaviviruses?” (International Journal of Molecular Sciences, 2022)
